From US20140255408A1 (Janssen / Centocor, published 2014)
Changes are numbered by the printed parent chain.

B1: P114AR7P95-H8 (designed binder, not shown: small tags and cut ends)
chain: LPAPKNLVVSRVTEDSARLSWTAPDAAFDSFWIRYFEFVSKGEAIVLTVPGSERSYDLTGLKPGTEYVVNIMGVKGGSISPPLSAIFTT
B2: P114AR7P92-G8 (designed binder, not shown: small tags and cut ends)
chain: B1 chain with W32V, V39L, S40G, K41S, N70Q, M72L, S78Y, P81I
B3: P114AR7P92-F6 (designed binder, not shown: small tags and cut ends)
chain: B1 chain with V39L, S40G, K41S, M72L, S78G, I79L, P81V
B4: P114AR7P94-E5 (designed binder, not shown: small tags and cut ends)
chain: B1 chain with V39L, S40G, K41S, V68A, S78R, I79V, P81V
B5: P114AR7P94-A3 (designed binder, not shown: small tags and cut ends)
chain: B1 chain with V39L, S40G, K41S, S78K
B6: P114AR7P92-H5 (designed binder, not shown: small tags and cut ends)
chain: B1 chain with F36L, V39L, S40L, K41G, N70Q, S78T, I79V
B7: P114AR7P95-G7 (designed binder, not shown: small tags and cut ends)
chain: B1 chain with F38L, V39L, K41T
B8: P114AR7P93-H9 (designed binder, not shown: small tags and cut ends)
chain: B1 chain with V39L, S40G, K41S, N70Q, M72I, S78H, P81L
B9: P114AR7P95-F10 (designed binder, not shown: small tags and cut ends)
chain: B1 chain with V39T, S40T, K41A
B10: P114AR7P95-E3 (designed binder, not shown: small tags and cut ends)
chain: B1 chain with V39L, S40G, K41S, N70Q, S78T, I79V
B11: P114AR7P93-D11 (designed binder, not shown: small tags and cut ends)
chain: B1 chain with V39L, S40G, K41S, N70G, M72N, S78Y, P81Y
B12: P114AR7P93-G8 (designed binder, not shown: small tags and cut ends)
chain: B1 chain with V39L, S40G, K41S, G60D, V68G, N70T, M72N, S78R, I79V, P81T
B13: P114AR7P95-D4 (designed binder, not shown: small tags and cut ends)
chain: B1 chain with V39L, S40G, K41S, N70Q, M72L, S78Y, P81I
B14: P114AR7P95-D3 (designed binder, not shown: small tags and cut ends)
chain: B1 chain with V39L, S40G, K41S, P81Y
B15: P114AR7P95-B9 (designed binder, not shown: small tags and cut ends)
chain: B1 chain with V39L, S40G, K41S, N70Q, M72L, P81V
B16: P114AR7P92-F3 (designed binder, not shown: small tags and cut ends)
chain: B1 chain with V39L, S40G, K41S, V68I, P81H
B17: P114AR5P75-E9 (designed binder, not shown: small tags and cut ends)
chain: LPAPKNLVVSRVTEDSARLSWTAPDAAFDSFFIRYDEFLRSGEAIVLTVPGSERSYDLTGLKPGTEYWVTILGVKGGLVSTPLSAIFTT
B18: ECB95 (designed binder)
chain: MLPAPKNLVVSEVTEDSARLSWDDPWAFYESFLIQYQESEKVGEAIVLTVPGSERSYDLTGLKPGTEYTVSIYGVHNVYKDTNIRGLPLSAIFTTAPAPAPAPAPLPAPKNLVVSRVTEDSARLSWTAPDAAFDSFWIRYFEFVGSGEAIVLTVPGSERSYDLTGLKPGTEYVVNILGVKGGSISPPLSAIFTT
notes: not shown: C-terminal poly-histidine tag
B19: ECB97 (designed binder)
chain: B18 chain with V144L, G178S
notes: as for B18
B20: ECB108 (designed binder)
chain: B18 chain with W26H, G145S, S146K, E148D
notes: as for B18
B21: ECB106 (designed binder)
chain: B18 chain with W26H, V144L, S183K
notes: as for B18
B22: ECB94 (designed binder)
chain: B18 chain with V144L, S183K
notes: as for B18
B23: ECB107 (designed binder)
chain: B18 chain with W26H
notes: as for B18
B24: ECB96 (designed binder)
chain: B18 chain with G145S, S146K, E148D
notes: as for B18
B25: ECB15 (designed binder)
chain: B18 chain with I84M, V144L, L177M, S183K
notes: as for B18
B26: P54AR4-47 (designed binder)
chain: LPAPKNLVVSEVTEDSLRLSWWDPFSFYDSFLIQYQESEKVGEAINLTVPGSERSYDLTGLKPGTEYTVSIYGVHNVYKDTNMRGLPLSAEFTT

Molecular target: T1, human c-Met on cells (human, UniProt P08581 25-1390)
T1 construct: c-Met on NCI-H441, NCI-H292, NCI-H1975 and U87-MG cells; in U-2 OS cells a beta-galactosidase fragment was fused to its C-terminus; also called hepatocyte growth factor receptor
Assay: H441 cell binding assay, anti-His detection
Method: Purified FN3 domains (50 μL/well; 0 to 1000 nM) were added to the cells for 1 hour at 4° C. in duplicate plates. […] Cells were incubated with biotinylated-anti HIS antibody (diluted 1:160 in FACS stain buffer, 50 μL/well, R&D Systems, cat #BAM050) for 30 minutes at 4° C. […] Cells were washed three times with FACS stain buffer (150 μL/well) and left in FACS stain buffer (50 μL/well).

EC50 [nM] | Binder
4.1 | B1
5.9 | B2
4.9 | B3
3.4 | B4
1.4 | B5
22 | B6
11.3 | B7
12.9 | B8
4.4 | B9
3.2 | B10
2.3 | B11
3.8 | B12
1.4 | B13

Molecular target: T1, human c-Met on cells
Assay: cell-based or functional assay

pMet inhibition in H441 cells (IC50) | Inhibition of Proliferation of U87-MG cells (IC50) [nM] | Binder
4.6 nM | – | B14
210 nM | 281 | B1
155 nM | 124 | B2
9.8 nM | 17.4 | B15
165 nM | 350 | B3
124 nM | 196 | B4
5 nM | 9.3 | B5
766 nM | 672 | B6
659 nM | 692 | B7
8.3 nM | 2.7 | B16
1.42 µM | 1190 | B17
288 nM | 270 | B8
188 nM | 130 | B9
205 nM | 209 | B10
16 nM | 14.4 | B11
460 nM | 104 | B12
19.5 nM | 19.4 | B13

Molecular target: T1, human c-Met on cells
Assay: cell-based or functional assay
Remark: another data set of the same source

pMet inhibition in H441 cells (IC50) [nM] | Binder
179 | B18
24.2 | B19
126 | B20
53.3 | B21
53.8 | B22
29.9 | B23
835 | B24

Molecular target: T2, human EGFR on cells (human, UniProt P00533 25-1210)
Assay: cell-based or functional assay

H292 pEGFR inhibition in H292 cells (IC50) [nM] | Binder
13.6 | B18
16.6 | B19
814 | B20
367 | B21
5.1 | B22
4.2 | B25
812 | B23
24.7 | B24

Molecular target: T3, recombinant human extracellular domain of EGFR fused to an IgG1 Fc (human, UniProt P00533 25-645)
T3 construct: Bought from R&D Systems; The residues are stated for the panning reagent; also called EGFR-Fc; EGF R-Fc; not shown: IgG1 Fc
Assay: SPR (ProteOn), protocol of Example 3, recombinant EGFR extracellular domain
Method: All 6 analyte channels were used for the FN3 domains to maximize screening throughput. The dissociation phase was monitored for 10 minutes at a flow rate of 100 μL/min. The inter-spot binding signals were used as references to monitor non-specific binding between analytes and the immobilized IgG surface, and were subtracted from all binding responses. The processed binding data were locally fit to a 1:1 simple Langmuir binding model to extract the koff for each FN3 domain binding to captured EGFR-Fc.
Binding affinity of selected EGFR-binding FN3 domains to recombinant EGFR extracellular domain was further characterized by surface Plasmon resonance methods using a Proteon Instrument (BioRad). The assay set-up (chip preparation, EGFR-Fc capture) was similar to that described above for off-rate analysis. Selected EGFR binding FN3 domains were tested at 1 μM concentration in 3-fold dilution series in the horizontal orientation. A buffer sample was also injected to monitor the baseline stability. […] Two sets of reference data were subtracted from the response data: 1) the inter-spot signals to correct for the non-specific interactions between the EGFR-binding FN3 domain and the immobilized IgG surface; 2) the buffer channel signals to correct for baseline drifting due to the dissociation of captured EGFR-Fc surface over time. The processed binding data at all concentrations for each FN3 domain were globally fit to a 1:1 simple Langmuir binding model to extract estimates of the kinetic (kₘ, koff) and affinity (KD) constants.

Kd [nM] | Binder
1.1 | B18
1.3 | B19
15.3 | B20
16.7 | B21
1 | B22
0.2 | B25
16.9 | B23
1.6 | B24

Molecular target: T4, Recombinant human c-Met Fc chimera (human, UniProt P08581 16-932)
T4 construct: not shown: Fc part
Assay: HGF competition assay on coated c-Met-Fc, competitor biotinylated HGF

IC50 [nM] | Binder
0.2 | B14
1.6 | B2
0.3 | B15
2.2 | B3
0.7 | B4
0.2 | B5
0.2 | B16
51.9 | B17
2.9 | B8
1.4 | B9
1 | B12

Molecular target: T2, human EGFR on cells
Assay: cell-based or functional assay
Remark: another data set of the same source

Phospho-EGFR IC50 (A431 cells) [nM] | Binder
295 | B26

Molecular target: T4, Recombinant human c-Met Fc chimera
Assay: SPR (ProteOn), protocol of Example 3, recombinant c-Met extracellular domain

Kd [nM] | Binder
6.2 | B18
1.7 | B19
25.5 | B20
5.1 | B21
4.3 | B22
2.6 | B25
9 | B23
22.1 | B24

Molecular target: T4, Recombinant human c-Met Fc chimera
Assay: SPR (ProteOn), c-Met-Fc captured on anti-human Fc IgG, FN3 domain as analyte

Kd [nM] | Binder
0.3 | B14
3.7 | B1
1 | B2
3.1 | B3
4.2 | B4
0.4 | B5
11.6 | B6
20 | B7
0.4 | B16
45.8 | B17
3.3 | B8
4.2 | B9
6.9 | B12
0.4 | B13
